For two molecules, EC50 results are on record in patent US20250277023A1 (published 2025).

In assay [1] the target is T1, PD-L1 (on CHO-PD-L1 cells) (UniProt Q9NZQ7 19-290). Description: FACS binding; Fig. 26. (In general: Flow cytometry measures light scatter and fluorescence of single cells or particles in a stream.)
Assay [2] has as its target T2, TIGIT (on CHO-TIGIT cells) (UniProt Q495A1 22-244).
T2 chain: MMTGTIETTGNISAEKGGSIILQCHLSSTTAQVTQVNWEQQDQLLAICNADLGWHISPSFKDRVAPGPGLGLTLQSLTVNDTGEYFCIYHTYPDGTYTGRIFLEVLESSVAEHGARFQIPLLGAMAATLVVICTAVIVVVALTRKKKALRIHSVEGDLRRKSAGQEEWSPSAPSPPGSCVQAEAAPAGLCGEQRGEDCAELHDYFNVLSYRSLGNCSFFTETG
Description: FACS binding; Fig. 20.

The target in assay [3] is T2, TIGIT (on CHO-TIGIT cells). As to the kind of experiment: FACS blocking of PVR binding to CHO-Tigit; Fig. 27.
Assay [4] concerns the target T1, PD-L1 (on CHO-PD-L1 cells). As to the kind of experiment: FACS binding; Fig. 22.

T1 sequence (Q9NZQ7 19-290): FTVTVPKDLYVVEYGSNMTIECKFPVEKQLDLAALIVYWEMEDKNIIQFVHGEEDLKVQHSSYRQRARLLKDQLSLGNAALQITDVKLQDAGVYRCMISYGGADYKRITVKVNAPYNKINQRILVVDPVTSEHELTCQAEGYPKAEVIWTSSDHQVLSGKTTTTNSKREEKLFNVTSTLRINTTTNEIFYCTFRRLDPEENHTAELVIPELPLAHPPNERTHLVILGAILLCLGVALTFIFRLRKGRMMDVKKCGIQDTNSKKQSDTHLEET

B1: R1262: TIGIT VH-IL2Rα mutant-Fc/TIGIT VL-IL2 mutant/PD-L1_VH-hIgG1/PD-L1 VL-κ-Ig LC (bispecific antibody)
chain 1: QVQLVQSGAEVKKPGSSVKVSCKASGYSFTSYWMNWVRQAPGQGLEWIGMIRPSDSETRLNQMFKDRVTITVDKSTSTAYMELSSLRSEDTAVYYCAGIHDYGHGAYWGQGTLVTVSSGGGGSGGGGSGGGGSGGGGCGELCDDDPPEIPHATFKAMAYKEGTMLNCECKRGFRRIKSGSLYMLCTGNSSHSSWDNQCQCTSSATRNTTKQVTPQPEEQKERKTTEMQSPMQPVDQASLPGHCREPPPWENEATERIYHFVVGQMVYYQCVQGYRALHRGPAESVCKMTHGKTRWTQPQLICTGEPKSSDKTHTCPPCPAPELLGGPSVFLFPPKPKDTLMISRTPEVTCVVVDVSHEDPEVKFNWYVDGVEVHNAKTKPREEQYNSTYRVVSVLTVLHQDWLNGKEYKCKVSNKALPAPIEKTISKAKGQPREPQVYTLPPSREEMTKNQVSLTCRVKGFYPSDIAVEWESNGQPENNYKTTPPVLKSDGSFFLASKLTVDKSRWQQGNVFSCSVMHEALHNHYTQKSLSLSPGK
chain 2: not shown
heavy: EVQLQESGPGLVKPSETLSLTCAVYGDSITSGYWNWIRKPPGKGLEYMGYISYTGSTYQNPSLKSRITFSRDTSKNQYYLKLSSVTAADTATYYCARSRAWIRTYFDYWGQGTLVTVSSASTKGPSVFPLAPSSKSTSGGTAALGCLVKDYFPEPVTVSWNSGALTSGVHTFPAVLQSSGLYSLSSVVTVPSSSLGTQTYICNVNHKPSNTKVDKRVEPKSCDKTHTCPPCPAPELLGGPSVFLFPPKPKDTLMISRTPEVTCVVVDVSHEDPEVKFNWYVDGVEVHNAKTKPREEQYNSTYRVVSVLTVLHQDWLNGKEYKCKVSNKALPAPIEKTISKAKGQPREPQVYTLPPSREEMTKNQVSLWCLVKGFYPSDIAVEWESNGQPENNYDTTPPVLDSDGSFFLYSDLTVDKSRWQQGNVFSCSVMHEALHNHYTQKSLSLSPGK
light: EIVLTQSPDFQSVTPKEKVTITCSVSSSISSSNLHWYQQKPDQSPKLLIYGTSNLASGVPSRFSGSGSGTDFTLTINSLEAEDAATYYCQQWSSYPLTFGQGTKLEIKRTVAAPSVFIFPPSDEQLKSGTASVVCLLNNFYPREAKVQWKVDNALQSGNSQESVTEQDSKDSTYSLSSTLTLSKADYEKHKVYACEVTHQGLSSPVTKSFNRGEC
Regarding B1, the EC50 in assay [1] came to 2.64 nM; in assay [2], 11.3 nM; in assay [3], 50.4 nM.

B2: R1115: TIGIT_VH_IL2RA/TIGIT_VL_IL2/PD-L1-Fab (bispecific antibody)
chain 1: QVQLVQSGAEVKKPGSSVKVSCKASGYSFTSYWMNWVRQAPGQGLEWIGMIRPSDSETRLNQMFKDRVTITVDKSTSTAYMELSSLRSEDTAVYYCAGIHDYGHGAYWGQGTLVTVSSGGGGSGGGGSGGGGSGGGGSGELCDDDPPEIPHATFKAMAYKEGTMLNCECKRGFRRIKSGSLYMLCTGNSSHSSWDNQCQCTSSATRNTTKQVTPQPEEQKERKTTEMQSPMQPVDQASLPGHCREPPPWENEATERIYHFVVGQMVYYQCVQGYRALHRGPAESVCKMTHGKTRWTQPQLICTGEPKSSDKTHTCPPCPAPELLGGPSVFLFPPKPKDTLMISRTPEVTCVVVDVSHEDPEVKFNWYVDGVEVHNAKTKPREEQYNSTYRVVSVLTVLHQDWLNGKEYKCKVSNKALPAPIEKTISKAKGQPREPQVYTLPPSREEMTKNQVSLTCRVKGFYPSDIAVEWESNGQPENNYKTTPPVLKSDGSFFLASKLTVDKSRWQQGNVFSCSVMHEALHNHYTQKSLSLSPGK
chain 2: not shown
heavy: EVQLQESGPGLVKPSETLSLTCAVYGDSITSGYWNWIRKPPGKGLEYMGYISYTGSTYQNPSLKSRITFSRDTSKNQYYLKLSSVTAADTATYYCARSRAWIRTYFDYWGQGTLVTVSSASTKGPSVFPLAPSSKSTSGGTAALGCLVKDYFPEPVTVSWNSGALTSGVHTFPAVLQSSGLYSLSSVVTVPSSSLGTQTYICNVNHKPSNTKVDKRVEPKSCDKTHTCPPCPAPELLGGPSVFLFPPKPKDTLMISRTPEVTCVVVDVSHEDPEVKFNWYVDGVEVHNAKTKPREEQYNSTYRVVSVLTVLHQDWLNGKEYKCKVSNKALPAPIEKTISKAKGQPREPQVYTLPPSREEMTKNQVSLWCLVKGFYPSDIAVEWESNGQPENNYDTTPPVLDSDGSFFLYSDLTVDKSRWQQGNVFSCSVMHEALHNHYTQKSLSLSPGK
light: EIVLTQSPDFQSVTPKEKVTITCSVSSSISSSNLHWYQQKPDQSPKLLIYGTSNLASGVPSRFSGSGSGTDFTLTINSLEAEDAATYYCQQWSSYPLTFGQGTKLEIKRTVAAPSVFIFPPSDEQLKSGTASVVCLLNNFYPREAKVQWKVDNALQSGNSQESVTEQDSKDSTYSLSSTLTLSKADYEKHKVYACEVTHQGLSSPVTKSFNRGEC
In the case of B2, the EC50 in assay [1] is 3.11 nM; in assay [2], 15.7 nM; in assay [4], 3.72 nM; in assay [3] it was 336 nM.

The EC50 is the concentration needed to bring the measured effect to its halfway point. Read a low EC50 as an effect from little substance.
